{"source": "the DeepSol protein solubility set"}
{"assay": "soluble on expression in E. coli; label from the status in PepcDB or PDB records"}
{"sequence": "MSGLHILAFGAHADDVEIGMAGTIAKYTKQGYEVGICDLTEADLSSNGTIELRKEEAKVAARIMGVKTRLNLAMPDRGLYMKEEYIREIVKVIRTYKPKLVFAPYYEDRHPDHANCAKLVEEAIFSAGIRKYMPELSPHRVESFYNYMINGFHKPNFCIDISEYLSIKVEALEAYESQFSTGSDGVKTPLTEGYVETVIAREKMFGKEVGVLYAEGFMSKKPVLLHADLLGGCK", "soluble on expression in E. coli": "not soluble"}
{"sequence": "MSGLVLGQRDEPAGHRLSQEEILGSTKVVSQGLEALHSEHQAVLQSLSHTIECLQQGGHEEGLVHEKARQLRRSMENIELGLSEAQVMLALASHLSTVESEKQKLRAQVRRLCQENQWLRDELAGTQQRLQRSEQAVAQLEEEKKHLEFLRQLRQYDEDGHGMEEKEGEATKDSLDDLFPNEEEEDSGNDLSRGQGAAAAQQGGYEIPARLRTLHNLVIQYAAQGRYEVAVPLCKQALEDLERTSGRGHPDVATMLNILALVYRDQNKYKEAAHLLNDALSIRESTLGRDHPAVAATLNNLALLSVWGWPTGLPCPGLFYPLLPHYRSTYFTVSLINEPGNI", "soluble on expression in E. coli": "soluble"}
{"sequence": "MSGMILDELSWRGLIAQSTDLDTLAAEAQRGPMTVYAGFDPTAPSLHAGHLVPLLTLRRFQRAGHRPIVLAGGATGMIGDPRDVGERSLNEADTVAEWTERIRGQLERFVDFDDSPMGAIVENNLEWTGSLSAIEFLRDIGKHFSVNVMLARDTIRRRLAGEGISYTEFSYLLLQANDYVELHRRHGCTLQIGGADQWGNIIAGVRLVRQKLGATVHALTVPLVTAADGTKFGKSTGGGSLWLDPQMTSPYAWYQYFVNTADADVIRYLRWFTFLSADELAELEQATAQRPQQRAAQRRLASELTVLVHGEAATAAVEHASRALFGRGELARLDEATLAAALRETTVAELKPGSPDGIVDLLVASGLSASKGAARRTIHEGGVSVNNIRVDNEEWVPQSSDFLHGRWLVLRRGKRSIAGVERIGLEHHHHHH", "soluble on expression in E. coli": "soluble"}
{"sequence": "MSGNQNGENVQQKKEKMCSIGETIYTWTQNKHATTYVGTYTKAFFSGEVCREIREHDEFLGMSFSSFF", "soluble on expression in E. coli": "not soluble"}
{"sequence": "MSGRHEACITPARRARQCLNRGNTMRHLPLFSLMLFPASVYAADSDGANLN", "soluble on expression in E. coli": "not soluble"}
{"sequence": "MSHAVSRLRDLRMARVAKPFFARGSRAERCPRCRVIPSHCLCAWRPKVVARSAMCLVMHDVEPLKPSNTGWLIADVIGDTTAFSWSRTEVDPQLLALLADPQWQPYIVFPGEFVAPERVVSEVRQEEGKRPLFILLDATWSEARKMFRKSPYLEHLPVLSLSPEKLSRYKLRRSKRDDHFCTAEVAALCLELAGDEQVSQVLDAYLDVFSTHYLSAKFQKAIDPDDDVHARLKPFVLEHHHHHH", "soluble on expression in E. coli": "not soluble"}
{"sequence": "MSHCSCHDKPQHSLLPAAYRILSITRHTPLEWNFRVAVDFPAHWGQFVEVSLPRVGEAPISVSDYGDGWIDLLIRNVGKVTSALFTLKEGDNVWLRGCYGNGYPVDTLRHKPLLVVAGGTGVAPVKGLMRYFVENPQEIGQLDMILGYKNRDCVLYKEEMATWRGKHNLVLTLDEGEADDRYQIGRVTDRLADMTLSDIDTMQAIVVGPPIMITFTVKMLLQKGLKPEQIWVDYERRMACSVGKCGHCRMGEVYVCTDGPIFNYAVAQRFAD", "soluble on expression in E. coli": "not soluble"}
{"sequence": "MSHDFAHTELEELLTRTREAIEASFGNRSPQVEVRGEGTDPDGHVRAVAVSGGRIETVEIAPQAVRLGSHRLAECALAAVNAALADLEAKAAEAAGLTGPQADALRERLREMQDLSLQQLRSYSRSLQDLMNSFERS", "soluble on expression in E. coli": "not soluble"}
{"sequence": "MSHHFRLAKGIPHVVDATPPHSMYNSPISIHYLPKRASSADPFKRKALSKSQRELTDFVNGRNGDPHGLRLPLPIRSSLTDLVKPKLLENRNYQPPRRKTPSKDHHSKAEENSKKAKKLERINKFKDAVLTDLIENDTYSDQMIMNSIRRHMEKLAGVISWDDLEKAADELIKKIGLNTNVQNSRRSSRSRDKNQRFNKPPLPYKVERIGSAQSLESLSSPSSSSAKTSSSSSSSSFSTSSQETNSSESS", "soluble on expression in E. coli": "not soluble"}
{"sequence": "MSHPRYKSLLNRDRIVEAFESGVLAKGGMIAHGRGETFDYLIGESTTDAALNSIKVSAALLVLAENPVISVNGNSVALAKDEFVELAKELNGKIEVNLFYRTTEREEKIKDVFESDINGGIVLLGIDNADKQIPGIDHLRGKVSESGIYTSDVVLVPLEDGDRAEALVKMGKTVIAIDLNPLSRTARKSTISIIDELTRCIPLITEYVREYKKMDRAELLKIVENYDNEENLRNILNLISKRLTSVDLEHHHHHH", "soluble on expression in E. coli": "not soluble"}
{"sequence": "MSHVTAAPNVLAASAGELAAIGSTMRAANAAAAAPTAGVLAAGGDDVSAGIAALFGARAQAYQAISAQAALFHDRFVQILQEGAAAYAMAEAANALPLQKAQGVVSELAQDRTGGTGTGQSRGAGGFGGVGQAGGKGWDGGPIGNGQVGEQHGAGQLGSTDGNPGVAGAAHGSGVSASHGSGATGAAGVADPGGSGAGVGSAAGNGTGAGSADAVGGAGTGRDIVGSVRGDGGVGMASGDGGLSTGAAGASAEGGLMPGFGGAPWVGGHWGLGGEGHSGAIGGVGEQVAPAVATAPAVSPATTSAVAAESGSTPATKAQAMHATTNPGNAAHQGNPADPGNSARRADGGRDEQLLLLPLTSLRGLRHTLKKLSGLRARNGLLTASGDNASGSGRPWDRDQLLRALGLRPPGHE", "soluble on expression in E. coli": "not soluble"}
{"sequence": "MSIESKIRQLIDQNGYITCDVLMQEVLNLNPTSYYKQVKSLANEGDFVTAPEISQLFGEIIGLWCIREWQRIGCPKSLSLVELGPGRGLLMRDLLRTAKLVPEFYKALSIELIEINKNFIAYQKANLQDINLPISHQSFVEDIPKKPTIIIANEFFDAIPIKQYIKVKELWYERIFVVQPVDERIKYDKISVNKQLQEYLLCTHIEAKDGAVLEESYKSIEIIKFIAQHLKRLSGSGLIIDYGYDIAPNGRTRYQYNQTLQAVKNHKYCPILENLGEADLSAHVDFYALKTVAKNSKINVIDTISQRDFLIENGILLRKQTLQDKLNDRHLAKFAYREEFKGDTKRSTAAYTLVREDASIGSTYKLPLEVEFGKMSEQAQIIERQVERLISPKQMGELFKVLQIMN", "soluble on expression in E. coli": "not soluble"}
{"sequence": "MSIKKSPVYNVIAVPVEKVQANDYNPNVVAPPEMRLLELSIWEDGFTMPCVCYYDKEKDVYILVDGFHRYSVLKTSKRIFQRENGMLPIVVIEKDLSNRMSSTIRHNRARGTHNIELMCHIVAELDKAGMSDQWIMKNIGMDRDELLRLKQISGLADLFANRDFSVPEDDQPGNVDKKPTR", "soluble on expression in E. coli": "not soluble"}
{"sequence": "MSILVYDREHNFKKWYIYWIPKTKMLGVKDDKDVVYEKMCTLQERTDILKVSKSLVEEKWSSLFSESGLHIEEVCEKELVLTFALQRNITLERTELSGRFDECLYLEYLRLKTLTNVSPMKRKRTASTVEHVIRSDDIKPILAPKSDPVKKRTTRMAAKASGPEFDDE", "soluble on expression in E. coli": "not soluble"}
{"sequence": "MSIMSYTGGTVVAMAGDECVCIASDLRIGEQMTTIATDQKKVHKVTDKVYVGLAGFQSDARTVLEKIMFRKNLYELRENRNIKPQVLSEMISNLAYQHRFGSYFTEPLVAGLDDTNKPYICCMDTIGCVSAPRDFVAVGTGQEYLLGVCENFWRENMKPDELFEATAQSILSCLERDAASGWGAVVYTITKDKVNVSTIKARMD", "soluble on expression in E. coli": "not soluble"}
{"sequence": "MSIPKQLMIGSVPYEVEVVKGWIDEKENGEVRIAEVTYHEQQIKISDNVAKHEGQMKNVLHEAIHAMLYEYGLDRLNKEVNVNALTTVFFDFIKNNIRGGISSFVGYQYLLLKCPEKTNVEFYDSDTDPATLRFKKETDELSFINTAAELVETINQHPPEVDVSALGVAMAKAEVHKAVDLGVAHEQIQESAVKMTTDKQTRKLPIVDVNRSSFPMEEIAKITKKEETDPIHWKTGIKYDDEGTPRYRTRYECCMCGNRGNQYEYEENKFTKCHKCNAKLKIVQATKNGFPERDAFGNFYVANDEYSVILDGE", "soluble on expression in E. coli": "not soluble"}
